Measurements taken from patent publication US20180128830A1, “DETECTION OF HUMAN CYTOMEGALOVIRUS IN BREAST CANCER” (priority 2015, published 2018).

Key:
MMP-3 [1] = assay: MMP-3 ELISA on cell lysates; assay type: cell-based, human; conditions: 10 ng/ml, 48 hours
Description: DuoSet ELISA kits (R&D Systems) were used to quantify uPAR, PAI-1, and MMP-3. For uPAR and PAI-1 measurement, MDA cells were seeded in triplicate in 96-well plate at 5.0×10^4 cell/mL density with complete L-15 media and treated with 10 ng/mL of either cmvIL-10 or hIL-10 for the indicated times and supernatants were collected daily. The ELISA was carried out on supernatants according to manufacturer's instructions using and following the addition of substrate and stop solution, absorbance of the plate was measured at 450 nm using a Dynex Opsys MR microplate reader. Sample concentrations were interpolated from a standard curve using linear regression analysis. For cell-associated MMP-3, MDA cells were seeded in 96-well plates and treated with cmvIL-10 as above. Cells were treated with cell lysis buffer (150 mM NaCl, 20 mM HEPES, 0.5% Triton-X-100, 1.0 mM NaOV4, 1.0 mM EDTA, 0.1% NaN3) supplemented with 1× protease inhibitors (Calbiochem, EMD Chemicals, San Diego Calif.) and were collected daily for the indicated time points. The lysates were evaluated for MMP-3 according to the manufacturer's instructions (R&D Systems).

MMP-3 [2] = assay: MMP-3 western blotting and zymography; assay type: cell-based, human; conditions: over time
Description: Confluent T-75 flasks of MDA-MB-231 cells were treated with 10 ng/mL cmvIL-10 (R&D systems) for the indicated times, then scraped and harvested into cell lysis buffer (150 mM NaCl, 20 mM HEPES, 0.5% Triton-X-100, 1.0 mM NaOV4, 1.0 mM EDTA, 0.1% NaN3) containing 1× protease inhibitors (Calbiochem). Cell lysates were clarified via centrifugation, heated at 70° C. for 10 min in reducing buffer, and the proteins separated on a 4-12% Tris-Base SDS-PAGE gel (Life Technologies, Grand Island, N.Y.). After transfer to nitrocellulose, the membrane was incubated in blocking solution (5% milk+TBS) for 1 hr at room and then probed with primary antibody: 1:1000 dilution for MMP-3 or MTSS-1 antibodies (Santa Cruz), or MAPK antiserum (Cell Signaling Tech, Danvers, Mass.), in blocking solution overnight, oscillating on a platform rocker at 4.0° C. After three washes, the membranes were incubated with a 1:2000 dilution of appropriate AP-conjugated secondary antibody on a platform rocker at room temperature for 1 hr. Protein bands were detected using western blue stabilized AP substrate (Promega, Madison, Wis.). For zymography, cell lysates were denatured in SDS buffer under non-reducing conditions without heat, and run on a 4-16% Zymogram gel using Tris-Glycine SDS running buffer according to manufacturer's instructions. […]

MDA-MB-231 cells [3] = assay: Apoptosis, Annexin V-FITC flow cytometry; assay type: cell-based, human; conditions: 100 ng/ml cmvIL-10 plus 100 μM etoposide, 48 hrs
Description: (§1) Cells were seeded into 96-well dishes at a density of 1×10^4 cell per well in complete medium with varying doses of cmvIL-10, and then cell viability measured at the indicated time points using the Cell Titer Glo Assay kit according to manufacturer's instructions (Promega). DNA synthesis was measured in cells prepared in the same way using the BrdU Cell Proliferation ELISA Kit (Roche, Basel, Switzerland). For experiments using inhibitors, cells were cultivated in 96-well dishes as above with a final concentration of 10 μM inhibitor and BrdU incorporation evaluated after 72 hrs. For cell counts, cells were seeded into 6-well plates at a density of 2×10^5 cells per well, harvested via trypsinization, and counted using a hemacytometer at the indicated time points. The TACS Annexin V-FITC Detection Kit (Trevigen, Gaithersburg, Md.) was used to stain cells harvested from 70% confluent T75 flasks that had been treated with 100 μM etoposide for 48 hrs in the presence or absence of 100 ng/ml cmvIL-10. Cells were then analyzed via flow cytometry to detect fluorescence. For viability assays, Cell Titer Glo reagent was utilized to quantify cells that had been seeded into 96-well dishes at a density of 1×10^4 cell per well in complete medium with varying doses of etoposide in the presence or absence of 100 ng/ml cmvIL-10 as indicated

MDA-MB-231 cells [4] = assay: DNA synthesis, BrdU Cell Proliferation ELISA; assay type: cell-based, human; conditions: 100 ng/ml, vs control
Description: as §1

CXCR4 = target: T1, CXCR4 (Homo sapiens, UniProt P61073); assay: Calcium flux assay in HEK293 cells; assay type: cell-based
T1 construct: HEK293 cells, which endogenously express both CXCR4 and IL-10R; endogenous in cells; host or cells: HEK293
Description: Calcium flux assays were performed as described (Arnolds K L, et al. Virology 439:122-131.). Briefly, cells were resuspended in 2 mls calcium assay buffer (RPMI with 25 mM of HEPES) at a density of 5×10^5 cells/ml per sample. Each sample was labeled with 2 μl of Fluo-4AM (Invitrogen, Grand Island, N.Y.), wrapped in foil, at 37° C. for 30 minutes with agitation at 10-minute intervals. Following incubation, each sample was pelleted, resuspended in calcium assay buffer, and transferred into an eppendorf tube for flow cytometry using the BD C6 Accuri. Fluorescence intensity of each sample was measured for 20 seconds to establish baseline, then stimulus (CXCL12, in the presence or absence of cmvIL-10, as indicated) was added via micropipetting directly into the sample while fluorescence intensity was measured. Kinetic fluorescence intensity analysis was performed with FlowJo software v9.4.9 (FlowJo, Ashland, Oreg.). Purified recombinant cmvIL-10 was purchased from R&D Systems (Minneapolis, Minn.) and purified recombinant CXCL12 was purchased from Peprotech (Rocky Hill, N.J.). For each calcium flux assay, ionomycin (Sigma) was a positive control for Fluo-4AM loading and PBS served as a negative control for the addition of stimulus.

T1 sequence (P61073 whole entry): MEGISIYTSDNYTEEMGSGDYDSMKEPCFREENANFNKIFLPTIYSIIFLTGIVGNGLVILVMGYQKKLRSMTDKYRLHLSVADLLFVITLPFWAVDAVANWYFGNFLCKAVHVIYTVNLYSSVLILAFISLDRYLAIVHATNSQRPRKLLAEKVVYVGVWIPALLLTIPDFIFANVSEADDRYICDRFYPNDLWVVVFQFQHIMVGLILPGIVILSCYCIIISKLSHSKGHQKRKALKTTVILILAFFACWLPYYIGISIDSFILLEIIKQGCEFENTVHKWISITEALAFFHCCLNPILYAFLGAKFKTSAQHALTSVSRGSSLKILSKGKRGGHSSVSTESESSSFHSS

B1: cmvIL-10 (protein)
chain: ATTTTIKNTKPQCRPEDYATRLQDLRVTFHRVKPTLQREDDYSVWLDGTVVKGCWGCSVMDWLLRRYLEIVFPAGDHVYPGLKTELHSMRSTLESIYKDMRQCPLLGCGDKSVISRLSQEAERKSDNGTRKGLSELDTLFSRLEEYLHSRK
cell-associated MMP-3 (cell lysates) (MMP-3 [1]): increased significantly | amount of active MMP-3 enzyme (zymography, casein digestion) (MMP-3 [2]): also increased | total MMP-3 protein (western blot) (MMP-3 [2]): increase in total MMP-3 protein | cells stained positive for Annexin V (MDA-MB-231 cells [3]): 14.8% | rate of DNA synthesis (BrdU incorporation) (MDA-MB-231 cells [4]): significantly higher | peak fluorescence intensity of calcium mobilization (CXCR4; CXCL12 0.1 μg/ml plus cmvIL-10 0.1 μg/ml): significantly higher | calcium mobilization (CXCR4; cmvIL-10 alone): did not induce calcium mobilization
